Test results: patent US20220281973A1 (TRUEBINDING, published 2022)

T1: human LRIG1 extracellular domain fused to a linker-spaced 6-histidine tag, LRIG1-ECD-His (R&D systems, … (human, UniProt Q96JA1 35-794))
T1 construct: Bought protein; also called human LRIG1-His; hLRIG1-His; not shown: linker-spaced 6-histidine tag
T1 sequence: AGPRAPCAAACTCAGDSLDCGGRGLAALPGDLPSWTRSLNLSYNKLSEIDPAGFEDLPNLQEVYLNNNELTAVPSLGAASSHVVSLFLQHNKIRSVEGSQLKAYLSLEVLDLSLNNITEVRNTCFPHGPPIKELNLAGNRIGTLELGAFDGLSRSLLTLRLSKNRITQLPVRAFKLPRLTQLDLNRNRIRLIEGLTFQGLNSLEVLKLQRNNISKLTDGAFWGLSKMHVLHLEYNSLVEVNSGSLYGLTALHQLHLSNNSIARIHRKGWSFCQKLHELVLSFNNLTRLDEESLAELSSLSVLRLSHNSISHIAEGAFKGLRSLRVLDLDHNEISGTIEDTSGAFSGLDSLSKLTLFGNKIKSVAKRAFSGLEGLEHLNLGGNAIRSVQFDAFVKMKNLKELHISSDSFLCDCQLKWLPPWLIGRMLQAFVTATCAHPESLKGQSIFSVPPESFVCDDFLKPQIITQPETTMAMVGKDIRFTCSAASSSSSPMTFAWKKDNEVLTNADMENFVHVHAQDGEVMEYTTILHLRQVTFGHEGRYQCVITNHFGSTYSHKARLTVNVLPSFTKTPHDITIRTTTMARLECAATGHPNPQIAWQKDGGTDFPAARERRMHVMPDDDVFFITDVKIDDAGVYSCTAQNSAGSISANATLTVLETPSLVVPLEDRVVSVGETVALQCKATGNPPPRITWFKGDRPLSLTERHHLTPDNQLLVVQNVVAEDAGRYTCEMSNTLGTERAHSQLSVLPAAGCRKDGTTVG

T2: hLRIG1 Peptide 69 (human)
T2 construct: 20 amino acid peptide of the LRIG1 peptide library
T2 peptide: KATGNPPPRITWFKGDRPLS

T3: hLRIG1 Peptide 70 (human)
T3 construct: 20 amino acid peptide of the LRIG1 peptide library
T3 peptide: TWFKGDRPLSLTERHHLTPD

T4: hLRIG1 Peptide 71 (human)
T4 construct: 20 amino acid peptide of the LRIG1 peptide library
T4 peptide: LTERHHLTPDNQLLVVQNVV


Columns and labels:
[1] = target: T1, human LRIG1 extracellular domain fused …; test: LRIG1 ECD ELISA-positive hybridoma antibodies tested in blocking ELISA on plate-bound LRIG1-ECD-His
Protocol: Positively scoring wells were evaluated for the ability to block association of LRIG1 and VISTA. To identify LRIG1-targeted antibodies with the ability to block the interaction of LRIG1 and VISTA, purified LRIG1 and VISTA proteins were incubated in the presence of LRIG1-immunization hybridoma supernatants described above, or without antibody, and protein interaction was evaluated by ELISA. Purified human LRIG1 extracellular domain fused to a HIS tag (R&D Systems) was diluted in phosphate buffered saline (PBS) (Corning) to a concentration of 3 μg/ml and 100 μl was added to each well of a 96-well ELISA plate (Thermo Fisher, 44-2404-21). After incubating the plate at 4° C. overnight, the plate was washed three times with 300 μl of PBS with 0.05% TWEEN (VWR) (PBST) per well. The plate was then blocked for an hour with 200 μl of 2% bovine serum albumin (BSA) (Sigma) in PBST per well at room temperature with gentle rocking. Thereafter, the 2% BSA in PBST was removed and 50 μl of hybridoma supernatant diluted to 3.3 ug/mL was added to the wells. The plate was incubated for 10 minutes at room temperature with gentle rocking. Afterwards, 100 ul of 50 nM oligomerized VISTA in 100 ul PBS buffer was added per well. VISTA oligomerization was performed by Klickmer formation. Briefly, 5 nM Klickmer (Immudex) was incubated with 200 nM hVISTA-Fc-Avi-Biotin in PBS and incubated for one hour. The plate was incubated for an hour at room temperature with gentle rocking. Thereafter, the plate was washed three times with 300 μl of PBST per well, and 100 μl of avidin-HRP (1:1000) (Jackson ImmunoResearch) was then added to each well and the plate was incubated at room temperature for 30 minutes with gentle rocking. Thereafter, the plate was washed three times with 300 μl of PBST per well. 100 μl of TMB substrate (Fisher Scientific, 34029) was then added to each well. The reaction was stopped with 50 μl of 1 M HCl (VWR) per well. The plate was read using a spectrophotometer (Molecular Devices) at absorbance of 450 nm. Percent blockade of LRIG1-VISTA interaction was calculated as the fraction of signal obtained in each experimental samples of the no antibody sample less background signal.

hLRIG1 Peptide 69 = target: T2, hLRIG1 Peptide 69; test: peptide ELISA of Example 2, as told in Example 3
Protocol: (§1) To identify the epitopes to which LRIG1 antibodies with and without VISTA-LRIG1 blocking activity bound, a library of 20 amino acid peptides representing portions of LRIG1 was produced, and the ability to bind LRIG1 antibodies was evaluated by ELISA. At least 2 ug/ml of hLRIG1 peptide in 50 μl of PBS or 0.1 ug/ml of full-length human LRIG1 protein (R&D Systems) in 100 μl of PBS was added to the wells of a 96-well ELISA plate (Thermo Fisher, 44-2404-21). After incubating the plate at 4° C. overnight, the plate was washed three times with 300 μl of PBST per well. The plate was then blocked for an hour with 200 μl of 2% BSA in PBST per well at room temperature with gentle rocking. Thereafter, the 2% BSA in PBST was removed and 100 μl of 0.1 ug/ml of antibody in 2% BSA in PBST was added to the wells. The plate was incubated for an hour at room temperature with gentle rocking and then washed three times with 300 μl of PBST per well. Afterwards, 100 μl of anti-mouse IgG-HRP (1:4000) (Jackson ImmunoResearch) or anti-rat IgG HRP (1:4000) (Jackson ImmunoResearch) was added to the wells. The plate was incubated for 30 minutes at room temperature with gentle rocking and then washed three times with 300 μl of PBST per well. 100 μl of TMB substrate (Fisher Scientific, 34029) was then added to each well. The reaction was stopped with 50 μl of 1 M HCl (VWR) per well. The plate was read using a plate reader (Molecular Devices) at absorbance of 450 nm, and signal greater than 0.25 OD was considered evidence of peptide binding.

hLRIG1 Peptide 70 = target: T3, hLRIG1 Peptide 70; test: peptide ELISA of Example 2, as told in Example 3
Protocol: as §1

hLRIG1 Peptide 71 = target: T4, hLRIG1 Peptide 71; test: peptide ELISA of Example 2, as told in Example 3
Protocol: as §1

Binder	binding result [1]	binding result (hLRIG1 Peptide 69)	binding result (hLRIG1 Peptide 70)	binding result (hLRIG1 Peptide 71)
802.5G6.2B11 (antibody, V domains shown, Mouse hybridoma monoclonal) VH: EVQLQQSGAELVRPGASVKLSCTASGFNIKDDYLHWVKQRPEQGLEWIGWIDPEKGDTECASKFQGKATITVDTSSNTAYLQLSSLTSEDTAVYFCTTGSTVWGQGTTLTVSS VL: not shown	binds	binds	–	–
802.2B7.2F9 (antibody, V domains shown, Mouse hybridoma monoclonal) VH: EVQLVESGGGLAKPGGSLKLSCAASGFTFSASAMSWVRQTPEKRLEWVATISDGGSYTYYPDNVKGRFTISRDNAKSNLYLQMSHLKSEDTAMYYCAGGVSTVINFDYWGQGTTLTVSS VL: DVVMTQTPLSLPVSLGDQVSISCRSSQSIVHSNGNTYLEWYLQKPGQSPKLLIYKVSNRFSGVPDRFSGSGSGTDFTLKISRVEAEDLGVYYCFQGSHVPLTFGGGTKLELK	binds	–	binds	binds
802.5G6.2B8 (antibody, V domains shown, Mouse hybridoma monoclonal) VH: EVHLVESGGGLMKPGGSLKLSCAASGFTFSSYAMSWVRQTPEKRLEWVATISDGGSYTYYPDNVKGRFTISRDNAKNNLYLQMSRLKSEDTAMYYCSRAGSTVVNFGYWGQGTTLTVSS VL: DIVMTQTPLSLPVSLGDQASISCRSSQNIAHSNGNTYLEWYLQKPGQSPQLLIYKVSNRFSGVPDRFSGSGSGTDFTLKISRVEAEDLGVYYCFQGSHVPLTFGAGTKLELK	binds	–	binds	binds
